Experimental data: article PMC5814841
Substitutions are numbered along the chain they refer to.

T1: hpTEN (Hansenula polymorpha (Ogataea …, UniProt R4IT35 1-159))
T1 sequence: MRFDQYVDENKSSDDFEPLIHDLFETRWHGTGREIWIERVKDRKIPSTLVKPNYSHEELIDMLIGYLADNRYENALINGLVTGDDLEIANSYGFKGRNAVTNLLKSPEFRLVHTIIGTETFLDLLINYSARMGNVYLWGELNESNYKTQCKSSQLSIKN

T2: hpTEN N53A/S55A/R110A (Hansenula polymorpha (Ogataea …, UniProt R4IT35 1-159, N53A;S55A;R110A))
T2 sequence: T1 sequence with N53A, S55A, R110A

T3: hpTEN N53A/S55A/R110A/E119A (Hansenula polymorpha (Ogataea …, UniProt R4IT35 1-159, N53A;S55A;R110A;E119A))
T3 sequence: T1 sequence with N53A, S55A, R110A, E119A

B1: E5 ssRNA 2 (ssRNA)
RNA: CGCCACCCCGCCAC
B2: E3 RNA-DNA heteroduplex 1 (DNA:RNA)
DNA: GGGTGGCG
?: CGCCACCC
B3: FAM-ssDNA E2 (ssDNA)
DNA: GTGGCGGGGTGGCG
B4: FAM-E4 heteroduplex (DNA:RNA)
DNA: GTGGCGGGGTGGCG
?: CGCCACCCCGCCAC
B5: E9 RNA-DNA half-fork (DNA:RNA)
DNA: GGGTGGC
RNA: GCCACCCUUCGUCA
B6: E1 ssRNA 1 (ssRNA)
RNA: CGCCACCC
B7: E4 RNA-DNA heteroduplex 2 (DNA:RNA)
DNA: GTGGCGGGGTGGCG
?: CGCCACCCCGCCAC
B8: FAM-E8 fork (DNA:RNA)
DNA: CTGTTTCGGGTGGC
RNA: GCCACCCUUCGUCA

What was measured:
hpTEN [1] = target: T1, hpTEN; assay: NMR titration
hpTEN [2] = target: T1, hpTEN; assay: MST
hpTEN N53A/S55A/R110A = target: T2, hpTEN N53A/S55A/R110A; assay: MST
[3] = target: T3, hpTEN N53A/S55A/R110A/E119A; assay: MST

| Binder | Kd (hpTEN [1]) | Kd (hpTEN [2]) | also measured |
| --- | --- | --- | --- |
| B1 | 5000 ± 3000 µM | – | – |
| B2 | 1400 ± 300 µM | – | – |
| B3 | – | 1000 ± 200 µM | – |
| B4 | – | 900 ± 200 µM | – |
| B5 | 4000 ± 2000 µM | – | – |
| B6 | 5000 ± 2500 µM | – | – |
| B7 | 900 ± 200 µM | – | – |
| B8 | – | 400 ± 200 µM | Kd (hpTEN N53A/S55A/R110A): ~300 µM; Kd [3]: ~300 µM |
